The values that follow come from the supplement of paper PMC7125110.

The chains are these.
B1: glmS ribozyme (parent)
chain: AUAAAAGCGCCAGAACUACAGAAAUGUAGUUGACGAGGAGGAGGUUUAUCGAAUUUUCGGCGGAUGCCUCCAAA

± gives the standard error. For some assays here: Fewer inactive variants are shown than the library holds.

Settings in all cases: with glucosamine-6-phosphate
In data set [1] the parent is B1. Description: self-cleavage kobs at 40 uM GlcN6P; higher = faster cleavage; RNA array. The method in brief: (§1)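 Tiles of sequenced MiSeq chips were imaged over ~14 h at 37 °C. On them, barcoded ribozyme variants had been transcribed in situ by E. coli RNA polymerase and were tracked via a hybridised Cy3 probe while glucosamine-6-phosphate (40 μM to 10 mM) in HEPES/KCl/Mg(OAc)2 buffer flowed in. Per-tile medians, normalised to baseline and to non-cleaving reference variants, were fit to one- or two-exponential decays for kobs, and weighted Michaelis–Menten fits gave kcat and KM.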

In data set [2] the parent is B1. Briefly: kcat; higher = faster cleavage; RNA array. A digest of the protocol:
as §1

In data set [3] the parent is B1. Description: KM; higher = weaker cofactor use; RNA array. A digest of the protocol:
as §1

In data set [4] the parent is B1. Briefly: self-cleavage kobs at 160 uM GlcN6P; higher = faster cleavage; RNA array. The method in brief:
as §1

Variants of B1 are the subject of data set [5]. Description: self-cleavage kobs at 640 uM GlcN6P; higher = faster cleavage; RNA array. A digest of the protocol: as §1
Variants of B1 are the subject of data set [6]. Description: self-cleavage kobs at 2500 uM GlcN6P; higher = faster cleavage; RNA array. A digest of the protocol: as §1
In data set [7] the parent is B1. Briefly: self-cleavage kobs at 10000 uM GlcN6P; higher = faster cleavage; RNA array. The method in brief: as §1

In the case of C61U C67G C68G, the “self-cleavage kobs at 40 uM GlcN6P” value with glucosamine-6-phosphate [1] is 4.73e-05 ± 1.6e-05 s⁻¹.

Consider C61U A64G, for which the kcat (in general, the maximal rate divided by the concentration of active sites) with glucosamine-6-phosphate [2] is 2.3e-05 ± 9.4e-07 s⁻¹. Further, in the data set with glucosamine-6-phosphate [3], the KM – broadly, the concentration of substrate that gives half-maximal velocity – turned out to be 1200 ± 250 µM. Also, in the data set with glucosamine-6-phosphate [1], the “self-cleavage kobs at 40 uM GlcN6P” value was less than 1e-05 s⁻¹. Besides, the “self-cleavage kobs at 160 uM GlcN6P” value with glucosamine-6-phosphate [4] is less than 1e-05 s⁻¹.

Turning to U65G C71U, the kcat with glucosamine-6-phosphate [2] came out at 0.00415 ± 0.00046 s⁻¹. Moreover, in the data set with glucosamine-6-phosphate [3], the KM is 2960 ± 430 µM. The “self-cleavage kobs at 40 uM GlcN6P” value in the data set with glucosamine-6-phosphate [1] was found to be 5.93e-05 ± 7e-06 s⁻¹. For the same variant, in the data set with glucosamine-6-phosphate [4], the “self-cleavage kobs at 160 uM GlcN6P” value amounted to 0.000189 ± 3.4e-05 s⁻¹. Further, the “self-cleavage kobs at 640 uM GlcN6P” value with glucosamine-6-phosphate [5] was 0.000688 ± 0.00013 s⁻¹. Besides, in the data set with glucosamine-6-phosphate [6], the “self-cleavage kobs at 2500 uM GlcN6P” value amounted to 0.00232 ± 0.00055 s⁻¹. Moreover, the “self-cleavage kobs at 10000 uM GlcN6P” value in the data set with glucosamine-6-phosphate [7] is 0.00316 ± 0.00037 s⁻¹.

G59A U69G: the kcat with glucosamine-6-phosphate [2] stood at 1.93e-05 ± 4.9e-06 s⁻¹.

With A53G C67U, the kcat with glucosamine-6-phosphate [2] worked out at 0.0134 ± 0.0047 s⁻¹. Besides, in the data set with glucosamine-6-phosphate [3], the KM is 1400 ± 680 µM. In addition, the “self-cleavage kobs at 40 uM GlcN6P” value with glucosamine-6-phosphate [1] stood at 0.000512 ± 6.3e-05 s⁻¹. Moreover, the “self-cleavage kobs at 160 uM GlcN6P” value with glucosamine-6-phosphate [4] stood at 0.000969 ± 0.00016 s⁻¹. Also, the “self-cleavage kobs at 640 uM GlcN6P” value with glucosamine-6-phosphate [5] stood at 0.00617 ± 0.0011 s⁻¹. In addition, in the data set with glucosamine-6-phosphate [6], the “self-cleavage kobs at 2500 uM GlcN6P” value was 0.0175 ± 0.0045 s⁻¹. Also, the “self-cleavage kobs at 10000 uM GlcN6P” value with glucosamine-6-phosphate [7] is 0.0111 ± 0.0015 s⁻¹.

Take U30G G38U: the kcat with glucosamine-6-phosphate [2] was less than 1e-05 s⁻¹. The KM with glucosamine-6-phosphate [3] was determined as 87.6 ± 41 µM.

On to A12U C67G C68G, for which, in the data set with glucosamine-6-phosphate [2], the kcat amounted to 4.76e-05 ± 1.4e-05 s⁻¹. Further, the “self-cleavage kobs at 160 uM GlcN6P” value with glucosamine-6-phosphate [4] stood at 7.57e-05 ± 3.2e-05 s⁻¹. Besides, in the data set with glucosamine-6-phosphate [5], the “self-cleavage kobs at 640 uM GlcN6P” value was found to be 6.79e-05 ± 1.9e-05 s⁻¹. Moreover, the “self-cleavage kobs at 2500 uM GlcN6P” value with glucosamine-6-phosphate [6] was found to be 4.47e-05 ± 1.5e-05 s⁻¹.

Regarding C16A U55C, the turnover number (kcat) in the data set with glucosamine-6-phosphate [2] worked out at 0.00122 ± 0.00014 s⁻¹. Further, the KM with glucosamine-6-phosphate [3] was 2120 ± 400 µM. In addition, in the data set with glucosamine-6-phosphate [1], the “self-cleavage kobs at 40 uM GlcN6P” value stood at 1.93e-05 ± 8.5e-06 s⁻¹. In addition, the “self-cleavage kobs at 160 uM GlcN6P” value with glucosamine-6-phosphate [4] was found to be 7.75e-05 ± 1.1e-05 s⁻¹. The “self-cleavage kobs at 640 uM GlcN6P” value in the data set with glucosamine-6-phosphate [5] was found to be 0.00033 ± 4.4e-05 s⁻¹. For the same variant, in the data set with glucosamine-6-phosphate [6], the “self-cleavage kobs at 2500 uM GlcN6P” value came to 0.000717 ± 8e-05 s⁻¹. Besides, in the data set with glucosamine-6-phosphate [7], the “self-cleavage kobs at 10000 uM GlcN6P” value amounted to 0.000949 ± 0.00011 s⁻¹.

On to G13A C71G, for which the kcat in the data set with glucosamine-6-phosphate [2] worked out at 5.85e-05 ± 4.1e-06 s⁻¹. Moreover, the “self-cleavage kobs at 640 uM GlcN6P” value with glucosamine-6-phosphate [5] worked out at 5.42e-05 ± 1.3e-05 s⁻¹. In addition, in the data set with glucosamine-6-phosphate [6], the “self-cleavage kobs at 2500 uM GlcN6P” value is 5.71e-05 ± 9.7e-06 s⁻¹. Moreover, in the data set with glucosamine-6-phosphate [7], the “self-cleavage kobs at 10000 uM GlcN6P” value is 5.48e-05 ± 7e-06 s⁻¹.

On to G29U G51U, for which the KM with glucosamine-6-phosphate [3] amounted to 40.3 ± 12 µM.

Turning to G63A A64U, the “self-cleavage kobs at 40 uM GlcN6P” value with glucosamine-6-phosphate [1] is less than 1e-05 s⁻¹. In addition, the “self-cleavage kobs at 640 uM GlcN6P” value in the data set with glucosamine-6-phosphate [5] was less than 1e-05 s⁻¹. Besides, the “self-cleavage kobs at 2500 uM GlcN6P” value in the data set with glucosamine-6-phosphate [6] was less than 1e-05 s⁻¹. The “self-cleavage kobs at 10000 uM GlcN6P” value with glucosamine-6-phosphate [7] is less than 1e-05 s⁻¹.

On to G51U U65G, for which the KM with glucosamine-6-phosphate [3] stood at 63.4 ± 18 µM.

U31G C68U: the kcat in the data set with glucosamine-6-phosphate [2] stood at 0.00134 ± 0.00023 s⁻¹. Besides, the KM with glucosamine-6-phosphate [3] was 2020 ± 590 µM. The “self-cleavage kobs at 40 uM GlcN6P” value with glucosamine-6-phosphate [1] was 3.14e-05 ± 7.7e-06 s⁻¹. For the same variant, the “self-cleavage kobs at 160 uM GlcN6P” value in the data set with glucosamine-6-phosphate [4] turned out to be 0.000119 ± 2.9e-05 s⁻¹. For the same variant, the “self-cleavage kobs at 640 uM GlcN6P” value with glucosamine-6-phosphate [5] is 0.000312 ± 4.3e-05 s⁻¹. The “self-cleavage kobs at 2500 uM GlcN6P” value with glucosamine-6-phosphate [6] came to 0.000606 ± 0.0001 s⁻¹. Besides, the “self-cleavage kobs at 10000 uM GlcN6P” value with glucosamine-6-phosphate [7] came out at 0.00126 ± 0.00015 s⁻¹.

Regarding G13U G41U, in the data set with glucosamine-6-phosphate [2], the kcat stood at 7.91e-05 ± 6.7e-06 s⁻¹. In addition, the KM in the data set with glucosamine-6-phosphate [3] was determined as 4150 ± 890 µM. Besides, the “self-cleavage kobs at 2500 uM GlcN6P” value with glucosamine-6-phosphate [6] was 3.07e-05 ± 8.6e-06 s⁻¹. The “self-cleavage kobs at 10000 uM GlcN6P” value with glucosamine-6-phosphate [7] amounted to 5.57e-05 ± 8.2e-06 s⁻¹.

As for C11U G63U, in the data set with glucosamine-6-phosphate [1], the “self-cleavage kobs at 40 uM GlcN6P” value is less than 1e-05 s⁻¹. In addition, the “self-cleavage kobs at 2500 uM GlcN6P” value with glucosamine-6-phosphate [6] was less than 1e-05 s⁻¹. Besides, in the data set with glucosamine-6-phosphate [7], the “self-cleavage kobs at 10000 uM GlcN6P” value was less than 1e-05 s⁻¹.

Consider A14U G43A, for which, in the data set with glucosamine-6-phosphate [2], the kcat was found to be 4.42e-05 ± 1.9e-05 s⁻¹.

G9A C16A: the kcat with glucosamine-6-phosphate [2] was less than 1e-05 s⁻¹. Besides, the KM in the data set with glucosamine-6-phosphate [3] was 31.6 ± 7.6 µM.

Regarding G13C C68A, the kcat in the data set with glucosamine-6-phosphate [2] is 1.1e-05 ± 2.3e-06 s⁻¹.

On to A14U C67U, for which the kcat in the data set with glucosamine-6-phosphate [2] was 0.00362 ± 0.00099 s⁻¹. Also, the KM in the data set with glucosamine-6-phosphate [3] amounted to 2860 ± 930 µM. In addition, in the data set with glucosamine-6-phosphate [1], the “self-cleavage kobs at 40 uM GlcN6P” value was found to be 6.23e-05 ± 7e-06 s⁻¹. Moreover, the “self-cleavage kobs at 160 uM GlcN6P” value with glucosamine-6-phosphate [4] came out at 0.000181 ± 2e-05 s⁻¹. Besides, the “self-cleavage kobs at 640 uM GlcN6P” value with glucosamine-6-phosphate [5] stood at 0.000591 ± 7.1e-05 s⁻¹. For the same variant, the “self-cleavage kobs at 2500 uM GlcN6P” value with glucosamine-6-phosphate [6] came out at 0.00164 ± 0.00034 s⁻¹. In addition, the “self-cleavage kobs at 10000 uM GlcN6P” value with glucosamine-6-phosphate [7] was 0.0031 ± 0.00053 s⁻¹.
